From patent US20100254965A1, “Adenosine Signaling in Diagnosis, Treatment, and Prevention of Priapism and Erectile Dysfunction” (BOARD OF REGENTS ,THE UNIVERSITY OF TEXAS SYSTEM, priority 2006, published 2010)
“Also recorded” adds a separate entry of the source.

Key:
[1] = system: corpus cavernosal strips (CCS); assay: EFS-induced relaxation of phenylephrine-precontracted corpus cavernosal strips (CCS) of ADA+ and ADA-/- mice; format: cell-based, mouse
Source text: Prolonged penile erection in ADA-deficient mice is associated with increased corpus cavernosal relaxation in response to nerve stimulation. To determine if the potent and prolonged penile erection seen in ADA-deficient mice is associated with increased corpus cavernosal relaxation, we evaluated comparatively the relaxation of phenylephrine-precontracted isolated corpus cavernosal strips of ADA+ and ADA−/− mice in response to nerve stimulation^73,74. The corpus cavernosum is under sympathetic influence to maintain a contracted state resulting in a flaccid penis^3. To emulate this situation, contraction was induced by treatment with the α-adrenergic receptor agonist, phenylephrine (10 μM). The maximum phenylephrine-induced contraction was reached within 10-20 s after application to cavernosal strips from ADA+ and ADA−/− mice. Electrical field stimulation (EFS) is commonly used to stimulate the nerves that innervate the smooth muscle cells of the corpus cavernosum to mediate relaxation, corresponding to normal physiological penile erection^19,73,74,92,93. In our studies, EFS induced relaxation of corpus cavernosal strips from both ADA+ and ADA−/− mice in a voltage and frequency-dependent manner (FIGS. 14b and c). For ADA+ mice, relaxation increased incrementally over a standard voltage range with a maximal response at 20 V and 30 Hz.
Elevated adenosine in ADA-deficient mice contributes to increased corpus cavernosal strip relaxation. […]
Function experiments. […] The contractility of each isolated corpus cavernosum smooth muscle cells (CCSM) strip was measured using an isometric force transducer (AD Instrument Inc., Georgia, Vt., USA). […] The contractile responses of the strips were analysed by adding 10 μM phenylephrine to the bath, and force changes were recorded in response to drug application and to electrical field stimulation. […] The changes of cAMP and cGMP contents in CC strips were subsequently measured by commercial enzyme immunoassay kit (Amersham Pharmacia) (see below).

ADA-deficient mice [2] = details: cited from earlier work
[3] = system: multiple animal models, including humans; details: in vivo; cited from earlier work
[4] = system: corpus cavernosal strips (CCS); assay: Adenosine-induced relaxation of corpus cavernosal strips (CCS); format: cell-based, mouse; details: CCS of wild type mice, 1-10 μM, adenosine 100 μM
Method: FIG. 16. […] CCS of wild type mice were treated with different concentrations of adenosine with or without DCF (5 μM), a specific inhibitor of adenosine deaminase. Then the extent (mN) of force was monitored. (b) CCS of wild type mice were treated with 100 μM adenosine in the presence of different concentrations of DCF (0-100 uM). Then the extent of force was measured. Data are expressed as mean±SE. *p<0.05, adenosine treated versus the control, **p<0.05, DCF treated versus the adenosine treated.
FIG. 17. A2BR signaling is required for adenosine-mediated corpus cavernosal strips (CCS) relaxation. (a) CCS of wild type mice were treated with different concentrations of theophiline (1-10 μM) in the presence or absence of adenosine (100 μM). The force changes were measured by force transducer. Data are expressed as mean±SE. *p<0.05, adenosine treated versus the control, **p<0.05, theophiline treated versus the untreated, N=5. (b) CCS from wild type, A2AR, A1R A2BR and A3R-deficient mice were treated with different concentrations of adenosine. The relaxation was measured by force transducer. Data are expressed as mean±SE. *p<0.05, adenosine treated versus the wild type. (c) CCS were isolated from wild type and A2BR-deficient mice and treated with different concentrations of adenosine in the presence or absence of L-NAME (100 μM) or MRS1706 (10 μM). 10 min after treatment, cellular extracts were collected and cAMP levels were measured by using a commercial enzyme immunoassay kit (Amersham Pharmacia). Data are expressed as mean±SE. *p<0.05, adenosine treated versus the control without treatment; **p<0.05, adenosine treated with MRS1706 versus the adenosine treated alone; ***p<0.05, CCS of A2BR-deficient mice treated with adenosine versus the CCS of wild type mice treated with adenosine. N=6-7. (d) CCS of A2BR and ADA double deficient mice lost the hypersensitivity to nerve stimulation compared to ADA deficient mice.
(§1) Function experiments. The tunica albuginea was cut longitudinally, starting at the most proximal point of the corpus cavernosum (CC) toward the penile shaft, and the erectile tissue was partially dissected free from the tunica. One strip of tissue (0.3×0.3×3 mm) was obtained from each corpus cavernosum. The contractility of each isolated corpus cavernosum smooth muscle cells (CCSM) strip was measured using an isometric force transducer (AD Instrument Inc., Georgia, Vt., USA). The strip was mounted in a thermostatically controlled tissue bath containing aerated PSS (mM: 119 NaCl, 4.7 KCl, 24 NaHCO 3, 1.2 KH2PO4, 2.5 CaCl2, 1.2 MgSO4, 0.023 EDTA, and 11 glucose; 5 ml volume, 95% O2 and 5% CO2, 37° C.) and stretched to a resting tension of 0.1 mN. The contractile responses of the strips were analysed by adding 10 μM phenylephrine to the bath, and force changes were recorded in response to drug application and to electrical field stimulation. The particular electrical field stimulation parameters of 0-30V, 30 HZ with a pulse width of approximately 0.5 ms, are commonly used in the mice. […] The changes of cAMP and cGMP contents in CC strips were subsequently measured by commercial enzyme immunoassay kit (Amersham Pharmacia) (see below).

[5] = system: corpus cavernosal strips (CCS); assay: EFS-induced relaxation of CCS of SCD transgenic mice and controls; format: cell-based, mouse
Method: FIG. 21. Priapic activity seen in SCD transgenic mice is dependent on elevated adenosine in penis via A2BR signaling. (a) Adenosine levels in the penis increased in SCD transgenic mice. Perchloric acid extracts of penile tissues from SCD transgenic mice and control mice were analyzed by HPLC to determine the levels of adenosine. The data are expressed as mean±SE. *p<0.005, (control n=5 and SCD transgenic mice n=6), SCD transgenic mice versus the controls. (b) Increased corpus cavernosum strips (CCS) relaxation by electrical field stimulation (EFS) in SCD transgenic mice. Relaxation effect of EFS with different voltages (0-30V) at 30 Hz and 0.5 ms pulse width, alternating polarity between pulses, in 10 μM phenylephrine-precontracted CCS from the controls (n=5) and SCD transgenic mice (n=5). (c-e) Prolonged penile erection seen in SCD transgenic mice is due to high levels of adenosine in the penis via A2BR signaling. Average EFS-induced relaxation from the PE-precontracted CC strips of the controls and SCD transgenic mice treated without or with PEG-ADA, MRS1706 or ZM241389. EFS-induced force change (c), duration of relaxation by EFS (d) and area under basal line (e) were representative of the CCS relaxation. (n=5 for the controls and n=5 for SCD transgenic mice with or without PEG-ADA, MRS1706 or ZM241389 treatment, respectively). Data are given as means±SE. *p<0.05, SCD transgenic mice versus the controls, **p<0.05, CCS of […] with PEG-ADA, MRS1706 or ZM241389 treatment versus CCS of SCD transgenic mice without treatment; ***p<0.05, CCS of the control mice with MRS1706 and/or L-NAME treatment versus CCS of the control mice without treatment.
Sickle cell disease (SCD) transgenic mice, expressing exclusively human sickle hemoglobin, were also used. These mice were age-matched, adult male homozygotes [SS^−/−, consisting of a transgene and two targeted gene deletions: (Tg (Hu-miniLCR alpha 1G gamma A gamma delta beta s) Hba0//Hba0 Hbb0//Hbb00) and heterozygotes (SS^−/+, SS^−/− genotype except Hbb0//Hbb+), developed on a mixed-strain background (mouse strains FVB/N, 129, DBA/2, C57BL/6, Black Swiss)^94,95.
as §1

ADA-deficient mice [6] = assay: Spontaneous prolonged penile erection (priapic activity) in ADA-deficient mice, PEG-ADA enzyme therapy; format: in vivo, mouse; details: intraperitoneal injection of PEG-ADA
Method: The ADA-deficient mice were injected with PEG-ADA weekly. During the course of maintaining our production colony of ADA-deficient mice, we noticed that ADA-deficient male breeders (kept alive by enzyme therapy) frequently presented with prolonged penile erections lasting up to 72 hours (FIG. 1a). The penile erections were typically noticed at the time of the scheduled weekly PEG-ADA injection. We know from earlier studies that the lowest levels of circulating adenosine are achieved during the first day following the PEG-ADA injection^21,28. Adenosine levels rise continually during the subsequent days preceding the next PEG-ADA injection. Thus, adenosine levels are highest just prior to the scheduled weekly injection of PEG-ADA when the priapism was observed^21,28. Priapic erections were never observed in wild type male mice (FIG. 14a).
Prolonged penile erection in ADA-deficient mice depends on pronounced accumulation of adenosine in the penis. We hypothesized that the increased penile erection and corpus cavernosal smooth muscle relaxation in response to nerve stimulation in ADA-deficient mice were due to elevated concentrations of adenosine. To test this hypothesis, adenosine levels were quantified in penile tissue from ADA^+ and ADA^−/− mice^21,23,28. […]

CNC[C@H](O)c1cccc(O)c1 [phenylephrine]
time to maximum phenylephrine-induced contraction ([1]; 10 μM, cavernosal strips from ADA+ and ADA-/- mice): 10 to 20 s

CCCn1c(=O)c2[nH]c(-c3cnn(Cc4cccc(C(F)(F)F)c4)c3)nc2n(CC)c1=O [CVT-6883]
adenosine-mediated pulmonary fibrosis and enlargement of alveolar airspaces (ADA-deficient mice [2]): significantly reduces adenosine-mediated pulmonary fibrosis and enlargement of alveolar airspaces

Cn1c(=O)c2[nH]cnc2n(C)c1=O [theophyline, theophylline]
adenosine-induced penile tumescence [3]: inhibited adenosine-induced penile tumescence
inhibition of adenosine-mediated corpus cavernosal strip relaxation [4]: significantly inhibited adenosine-mediated corpus cavernosal strip relaxation in a dosage dependent manner

B1: PEG-ADA: purified bovine ADA covalently modified with activated polyethylene glycol; modified form of ADA used for enzyme therapy (protein, UniProt P56658 2-363, looked up)
Adenosine deaminase: AQTPAFNKPKVELHVHLDGAIKPETILYYGRKRGIALPADTPEELQNIIGMDKPLSLPEFLAKFDYYMPAIAGCREAVKRIAYEFVEMKAKDGVVYVEVRYSPHLLANSKVEPIPWNQAEGDLTPDEVVSLVNQGLQEGERDFGVKVRSILCCMRHQPSWSSEVVELCKKYREQTVVAIDLAGDETIEGSSLFPGHVKAYAEAVKSGVHRTVHAGEVGSANVVKEAVDTLKTERLGHGYHTLEDATLYNRLRQENMHFEVCPWSSYLTGAWKPDTEHPVVRFKNDQVNYSLNTDDPLIFKSTLDTDYQMTKNEMGFTEEEFKRLNINAAKSSFLPEDEKKELLDLLYKAYGMPSPASAEQCL
modifications: PEG
notes: modified form of ADA used for enzyme therapy
force, duration and area under baseline of EFS-induced relaxation ([1]; CCS from ADA-/- mice, EFS 5V and 30 Hz for 60 s, versus untreated CCS): significantly reduced the force, duration and area under baseline
EFS-induced CCS relaxation ([1]; CCS of control (ADA+) mice, EFS 5V and 30 Hz): decreased the EFS-induced CCS relaxation
pulmonary inflammation and fibrosis (ADA-deficient mice [2]; lowering adenosine by PEG-ADA therapy): can prevent and even reverse aspects of pulmonary inflammation and fibrosis
force, duration and area under baseline of EFS-induced relaxation ([5]; CCS of SCD transgenic mice versus untreated CCS): significantly reduced the force, duration and area under baseline
force, duration and area under baseline of EFS-induced relaxation ([5]; CCS of the controls): decreased the force, duration and area under baseline
prolonged penile erection / priapic activity (ADA-deficient mice [6]): quickly corrected; also recorded: quickly reverses the priapic activity; also recorded: relieved the prolonged penile erection
